Experimental data published in patent publication US8637237.

Target: mouse RXRα (mRXRα) (mouse) (UniProt P28700)
Assay: cell-based or functional assay

GGF-dependent transcriptional induction by farnesol (40 µM), FIG. 16D: 2 fold
Substance: GGF (human glucocorticoid receptor amino terminus and DBD linked to the carboxyl terminus (LBD) of FXR) (from UniProt P04150 1-509; Q62735 188-469)
